Data on one substance can be found in patent US20120039865A1, “IDENTIFICATION OF SORTILIN AS A NEURONAL RECEPTOR FOR THE FRONTOTEMPORAL DEMENTIA PROTEIN, PROGRANULIN” (Yale University, priority 2008, published 2012).

In the assay the target is endogenous mouse sortilin (Sort1) of mouse brain lysate, mouse cortical neurons and mice in vivo (mouse) (UniProt Q6PHU5). As to the kind of experiment: cell-based or functional assay.
endogenous mouse sortilin (Sort1) of mouse brain lysate, mouse cortical neurons and mice in vivo (mouse), sequence (Q6PHU5 74-825 limits assumed): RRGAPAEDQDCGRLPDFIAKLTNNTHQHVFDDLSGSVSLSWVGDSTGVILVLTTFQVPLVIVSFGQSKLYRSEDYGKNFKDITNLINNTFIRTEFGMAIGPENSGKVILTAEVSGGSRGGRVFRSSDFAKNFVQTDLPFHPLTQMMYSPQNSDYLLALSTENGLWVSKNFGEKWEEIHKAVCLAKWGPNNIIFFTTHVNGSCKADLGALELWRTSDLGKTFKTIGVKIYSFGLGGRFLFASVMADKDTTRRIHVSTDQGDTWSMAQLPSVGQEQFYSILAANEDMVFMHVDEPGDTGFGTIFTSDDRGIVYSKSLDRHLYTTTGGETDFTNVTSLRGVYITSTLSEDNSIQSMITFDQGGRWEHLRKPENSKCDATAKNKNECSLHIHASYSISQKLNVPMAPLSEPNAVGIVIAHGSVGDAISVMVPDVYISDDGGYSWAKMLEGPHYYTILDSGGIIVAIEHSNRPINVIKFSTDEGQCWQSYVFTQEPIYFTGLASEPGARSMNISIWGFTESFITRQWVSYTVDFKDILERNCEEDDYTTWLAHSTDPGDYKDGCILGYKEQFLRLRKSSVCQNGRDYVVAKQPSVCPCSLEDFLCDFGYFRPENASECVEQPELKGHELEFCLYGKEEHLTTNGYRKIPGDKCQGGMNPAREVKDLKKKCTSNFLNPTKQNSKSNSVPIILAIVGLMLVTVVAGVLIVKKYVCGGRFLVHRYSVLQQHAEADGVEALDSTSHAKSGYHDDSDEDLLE

“endogenous mouse PGRN (serum and brain of mice) (from UniProt P28798 18-589) (ligand)” gave a fold-increase in PGRN level in brain of sortilin -/- mice of 3 fold and a fold-increase in PGRN level in serum of sortilin -/- mice (immunoblot) of 4 fold.
